# Test results taken from patent publication US20070078092A1 (CUREGENICS, published 2007).
# Numbered stars: 1 amine (or outer) side, 2 acyl side, 3 side chain; on linkers, the order of the positions; unused ones are H or OH. Square brackets hold non-standard residues; d marks the D form. Ends that are not written are not given here. * marks the point of attachment. Cholesteryloxycarbonyl = CC(C)CCC[C@@H](C)[C@H]1CC[C@H]2[C@@H]3CC=C4C[C@@H](OC(=O)*)CC[C@]4(C)[C@H]3CC[C@]12C; Ser(Me) = COC[C@H](N[*:1])C(=O)[*:2]; hLeu = CC(C)CC[C@H](N)C(=O)O; Nva = CCC[C@H](N)C(=O)O; Dap = NC[C@H](N)C(=O)O; GABA = NCCCC(=O)O; βAla = NCCC(=O)O
# B1: PTR 6330 (peptide)
# peptide: Cholesteryloxycarbonyl-GGGRPR[Nva]Y[Dap][hLeu]-NH2
# SMILES: CCC[C@H](NC(=O)[C@H](CCCNC(=N)N)NC(=O)[C@@H]1CCCN1C(=O)[C@H](CCCNC(=N)N)NC(=O)CNC(=O)CNC(=O)CNC(=O)O[C@H]1CC[C@@]2(C)C(=CC[C@H]3[C@@H]4CC[C@H]([C@H](C)CCCC(C)C)[C@@]4(C)CC[C@@H]32)C1)C(=O)N[C@@H](Cc1ccc(O)cc1)C(=O)N[C@@H](CN)C(=O)N[C@@H](CCC(C)C)C(N)=O
# B2: PTR 6324 (peptide)
# peptide: Cholesteryloxycarbonyl-[dK][dK][dK][dK][dK]RPR[Nva]Y[Dap][hLeu]-NH2
# SMILES: CCC[C@H](NC(=O)[C@H](CCCNC(=N)N)NC(=O)[C@@H]1CCCN1C(=O)[C@H](CCCNC(=N)N)NC(=O)[C@@H](CCCCN)NC(=O)[C@@H](CCCCN)NC(=O)[C@@H](CCCCN)NC(=O)[C@@H](CCCCN)NC(=O)[C@@H](CCCCN)NC(=O)O[C@H]1CC[C@@]2(C)C(=CC[C@H]3[C@@H]4CC[C@H]([C@H](C)CCCC(C)C)[C@@]4(C)CC[C@@H]32)C1)C(=O)N[C@@H](Cc1ccc(O)cc1)C(=O)N[C@@H](CN)C(=O)N[C@@H](CCC(C)C)C(N)=O
# B3: PTR 6298 (peptide)
# peptide: Cholesteryloxycarbonyl-[GABA]RPR[Nva]Y[Dap][hLeu]-NH2
# SMILES: CCC[C@H](NC(=O)[C@H](CCCNC(=N)N)NC(=O)[C@@H]1CCCN1C(=O)[C@H](CCCNC(=N)N)NC(=O)CCCNC(=O)O[C@H]1CC[C@@]2(C)C(=CC[C@H]3[C@@H]4CC[C@H]([C@H](C)CCCC(C)C)[C@@]4(C)CC[C@@H]32)C1)C(=O)N[C@@H](Cc1ccc(O)cc1)C(=O)N[C@@H](CN)C(=O)N[C@@H](CCC(C)C)C(N)=O
# B4: PTR 6320 (peptide)
# peptide: Cholesteryloxycarbonyl-[dK][dK][dK]RPR[Nva]Y[Dap][hLeu]-NH2
# SMILES: CCC[C@H](NC(=O)[C@H](CCCNC(=N)N)NC(=O)[C@@H]1CCCN1C(=O)[C@H](CCCNC(=N)N)NC(=O)[C@@H](CCCCN)NC(=O)[C@@H](CCCCN)NC(=O)[C@@H](CCCCN)NC(=O)O[C@H]1CC[C@@]2(C)C(=CC[C@H]3[C@@H]4CC[C@H]([C@H](C)CCCC(C)C)[C@@]4(C)CC[C@@H]32)C1)C(=O)N[C@@H](Cc1ccc(O)cc1)C(=O)N[C@@H](CN)C(=O)N[C@@H](CCC(C)C)C(N)=O
# B5: PTR 6322 (peptide)
# peptide: Cholesteryloxycarbonyl-[dK][dK][dK][dK]RPR[Nva]Y[Dap][hLeu]-NH2
# SMILES: CCC[C@H](NC(=O)[C@H](CCCNC(=N)N)NC(=O)[C@@H]1CCCN1C(=O)[C@H](CCCNC(=N)N)NC(=O)[C@@H](CCCCN)NC(=O)[C@@H](CCCCN)NC(=O)[C@@H](CCCCN)NC(=O)[C@@H](CCCCN)NC(=O)O[C@H]1CC[C@@]2(C)C(=CC[C@H]3[C@@H]4CC[C@H]([C@H](C)CCCC(C)C)[C@@]4(C)CC[C@@H]32)C1)C(=O)N[C@@H](Cc1ccc(O)cc1)C(=O)N[C@@H](CN)C(=O)N[C@@H](CCC(C)C)C(N)=O
# B6: PTR 6304 (peptide)
# peptide: Cholesteryloxycarbonyl-RPR[Nva]Y[Ser(Me)][hLeu]-NH2
# SMILES: CCC[C@H](NC(=O)[C@H](CCCNC(=N)N)NC(=O)[C@@H]1CCCN1C(=O)[C@H](CCCNC(=N)N)NC(=O)O[C@H]1CC[C@@]2(C)C(=CC[C@H]3[C@@H]4CC[C@H]([C@H](C)CCCC(C)C)[C@@]4(C)CC[C@@H]32)C1)C(=O)N[C@@H](Cc1ccc(O)cc1)C(=O)N[C@@H](COC)C(=O)N[C@@H](CCC(C)C)C(N)=O
# B7: PTR 6294 (peptide)
# peptide: Cholesteryloxycarbonyl-GRPR[Nva]Y[Dap][hLeu]-NH2
# SMILES: CCC[C@H](NC(=O)[C@H](CCCNC(=N)N)NC(=O)[C@@H]1CCCN1C(=O)[C@H](CCCNC(=N)N)NC(=O)CNC(=O)O[C@H]1CC[C@@]2(C)C(=CC[C@H]3[C@@H]4CC[C@H]([C@H](C)CCCC(C)C)[C@@]4(C)CC[C@@H]32)C1)C(=O)N[C@@H](Cc1ccc(O)cc1)C(=O)N[C@@H](CN)C(=O)N[C@@H](CCC(C)C)C(N)=O
# B8: PTR 6308 (peptide)
# peptide: Cholesteryloxycarbonyl-[βAla]RPR[Nva]Y[Ser(Me)][hLeu]-NH2
# SMILES: CCC[C@H](NC(=O)[C@H](CCCNC(=N)N)NC(=O)[C@@H]1CCCN1C(=O)[C@H](CCCNC(=N)N)NC(=O)CCNC(=O)O[C@H]1CC[C@@]2(C)C(=CC[C@H]3[C@@H]4CC[C@H]([C@H](C)CCCC(C)C)[C@@]4(C)CC[C@@H]32)C1)C(=O)N[C@@H](Cc1ccc(O)cc1)C(=O)N[C@@H](COC)C(=O)N[C@@H](CCC(C)C)C(N)=O
# B9: PTR 6296 (peptide)
# peptide: Cholesteryloxycarbonyl-[βAla]RPR[Nva]Y[Dap][hLeu]-NH2
# SMILES: CCC[C@H](NC(=O)[C@H](CCCNC(=N)N)NC(=O)[C@@H]1CCCN1C(=O)[C@H](CCCNC(=N)N)NC(=O)CCNC(=O)O[C@H]1CC[C@@]2(C)C(=CC[C@H]3[C@@H]4CC[C@H]([C@H](C)CCCC(C)C)[C@@]4(C)CC[C@@H]32)C1)C(=O)N[C@@H](Cc1ccc(O)cc1)C(=O)N[C@@H](CN)C(=O)N[C@@H](CCC(C)C)C(N)=O
# B10: PTR 6328 (peptide)
# peptide: Cholesteryloxycarbonyl-GGRPR[Nva]Y[Dap][hLeu]-NH2
# SMILES: CCC[C@H](NC(=O)[C@H](CCCNC(=N)N)NC(=O)[C@@H]1CCCN1C(=O)[C@H](CCCNC(=N)N)NC(=O)CNC(=O)CNC(=O)O[C@H]1CC[C@@]2(C)C(=CC[C@H]3[C@@H]4CC[C@H]([C@H](C)CCCC(C)C)[C@@]4(C)CC[C@@H]32)C1)C(=O)N[C@@H](Cc1ccc(O)cc1)C(=O)N[C@@H](CN)C(=O)N[C@@H](CCC(C)C)C(N)=O
# B11: PTR 6306 (peptide)
# peptide: Cholesteryloxycarbonyl-GRPR[Nva]Y[Ser(Me)][hLeu]-NH2
# SMILES: CCC[C@H](NC(=O)[C@H](CCCNC(=N)N)NC(=O)[C@@H]1CCCN1C(=O)[C@H](CCCNC(=N)N)NC(=O)CNC(=O)O[C@H]1CC[C@@]2(C)C(=CC[C@H]3[C@@H]4CC[C@H]([C@H](C)CCCC(C)C)[C@@]4(C)CC[C@@H]32)C1)C(=O)N[C@@H](Cc1ccc(O)cc1)C(=O)N[C@@H](COC)C(=O)N[C@@H](CCC(C)C)C(N)=O
# B12: PTR 6318 (peptide)
# peptide: Cholesteryloxycarbonyl-[dK][dK]RPR[Nva]Y[Dap][hLeu]-NH2
# SMILES: CCC[C@H](NC(=O)[C@H](CCCNC(=N)N)NC(=O)[C@@H]1CCCN1C(=O)[C@H](CCCNC(=N)N)NC(=O)[C@@H](CCCCN)NC(=O)[C@@H](CCCCN)NC(=O)O[C@H]1CC[C@@]2(C)C(=CC[C@H]3[C@@H]4CC[C@H]([C@H](C)CCCC(C)C)[C@@]4(C)CC[C@@H]32)C1)C(=O)N[C@@H](Cc1ccc(O)cc1)C(=O)N[C@@H](CN)C(=O)N[C@@H](CCC(C)C)C(N)=O
# B13: PTR 6312 (peptide)
# peptide: [dK][dK][dK][dK][dK][dK][dK][dK]RPR[Nva]Y[Dap][hLeu]K(Cholesteryloxycarbonyl)-NH2
# modifications: N-terminus assumed
# SMILES: CCC[C@H](NC(=O)[C@H](CCCNC(=N)N)NC(=O)[C@@H]1CCCN1C(=O)[C@H](CCCNC(=N)N)NC(=O)[C@@H](CCCCN)NC(=O)[C@@H](CCCCN)NC(=O)[C@@H](CCCCN)NC(=O)[C@@H](CCCCN)NC(=O)[C@@H](CCCCN)NC(=O)[C@@H](CCCCN)NC(=O)[C@@H](CCCCN)NC(=O)[C@H](N)CCCCN)C(=O)N[C@@H](Cc1ccc(O)cc1)C(=O)N[C@@H](CN)C(=O)N[C@@H](CCC(C)C)C(=O)N[C@@H](CCCCNC(=O)O[C@H]1CC[C@@]2(C)C(=CC[C@H]3[C@@H]4CC[C@H]([C@H](C)CCCC(C)C)[C@@]4(C)CC[C@@H]32)C1)C(N)=O
# B14: PTR 6326 (peptide)
# peptide: Cholesteryloxycarbonyl-[dK][dK][dK][dK][dK][dK]RPR[Nva]Y[Dap][hLeu]-NH2
# SMILES: CCC[C@H](NC(=O)[C@H](CCCNC(=N)N)NC(=O)[C@@H]1CCCN1C(=O)[C@H](CCCNC(=N)N)NC(=O)[C@@H](CCCCN)NC(=O)[C@@H](CCCCN)NC(=O)[C@@H](CCCCN)NC(=O)[C@@H](CCCCN)NC(=O)[C@@H](CCCCN)NC(=O)[C@@H](CCCCN)NC(=O)O[C@H]1CC[C@@]2(C)C(=CC[C@H]3[C@@H]4CC[C@H]([C@H](C)CCCC(C)C)[C@@]4(C)CC[C@@H]32)C1)C(=O)N[C@@H](Cc1ccc(O)cc1)C(=O)N[C@@H](CN)C(=O)N[C@@H](CCC(C)C)C(N)=O
# B15: PTR 6962 (peptide)
# peptide: Cholesteryloxycarbonyl-[dK][dK][dK][dK][dK][dK][dK][dK]RPR[Nva]Y[Dap][hLeu]-NH2
# SMILES: CCC[C@H](NC(=O)[C@H](CCCNC(=N)N)NC(=O)[C@@H]1CCCN1C(=O)[C@H](CCCNC(=N)N)NC(=O)[C@@H](CCCCN)NC(=O)[C@@H](CCCCN)NC(=O)[C@@H](CCCCN)NC(=O)[C@@H](CCCCN)NC(=O)[C@@H](CCCCN)NC(=O)[C@@H](CCCCN)NC(=O)[C@@H](CCCCN)NC(=O)[C@@H](CCCCN)NC(=O)O[C@H]1CC[C@@]2(C)C(=CC[C@H]3[C@@H]4CC[C@H]([C@H](C)CCCC(C)C)[C@@]4(C)CC[C@@H]32)C1)C(=O)N[C@@H](Cc1ccc(O)cc1)C(=O)N[C@@H](CN)C(=O)N[C@@H](CCC(C)C)C(N)=O
# Biological target: protein kinase B (PKB)
# Assay: cell-based or functional assay
row,Binder,"IC50, in vitro kinase assay PKB [nM]"
1,B1,1000
2,B2,100
3,B3,2000
4,B4,200
5,B5,100
6,B6,500
7,B7,1000
8,B8,500
9,B9,2000
10,B10,1000
11,B11,500
12,B12,200
13,B13,100
14,B14,100
15,B15,100
